Measurements as given in patent US6635450 (FRED HUTCHINSON CANCER RESEARCH CENTER, dated 2003).

Target: Cdk2 alone (baculoviral HA-tagged Cdk2 immunoadsorbed to sepharose beads) (UniProt P24941 1-298)
Assay: depletion of the Cdk2 inhibitor from Mv1Lu cell extracts on Cdk2 sepharose beads, read by cyclin E-associated H1 kinase activity
Experimental: Cyclin E-Cdk2 sepharose was prepared by mixing 1.2 µl of Sf9 cell lysate containing Hemagglutinin tagged Cdk2 (Cdk2 -HA) with 12 µl lysate containing cyclin E in buffer A (30 mM HEPES-KCH pH 7.5, 7.5 mM MgCl_2, 1 mM DTT) containing 10 mM ATP and incubated at room temperature for 30 minutes to allow complete formation. The assembly reaction was then adjusted to 250 mM NaCl and 0.5% NP40. The Cdk2-HA containing complexes were immunoprecipitated with the 12CA5 monoclonal antibody (BABCO) and collected on protein A-sepharose. Cdk2 sepharose was prepared in an identical manner except cyclin E was omitted. Immunoprecipitates were washed twice with NP40 RIPA buffer ([…], 250 mM NaCl, 10 mM EDTA, 20 mM Tris-HCl pH 7.4) and four times with buffer A. The matrix was divided into 4 aliquots and incubated with 100 µg of cell extract in buffer A containing 3 mM ATP, 20 µg/ml creatine phosphokinase, 40 mM phospho-creatine for 45 minutes at 37° C. After incubation the supernatant was collected and assayed for Cdk2 activation by addition of recombinant cyclin E as described below. A critical parameter in the execution of this experiment is to ensure that no cyclin, Cdk or complex leaks from the beads into the cell extract. This is unpredictable and must be checked by immunoblotting each time the experiment is performed.

B1: p27 protein, the 27 kD cyclin E-Cdk2 binding protein of Mv1Lu mink epithelial cells (endogenous) (other)
chain: MSNVRVSNGSPSLERMDARQAEYPKPSACRNLFGPVNHEELTRDLEKHRRDMEEASQRKWNFDFQNHKPLEGKYEWQEVEKGSLPEFYYRPPRPPKGACKVPAQESQDVSGTRQAVPLMGSQANSEDTHLVDQKTDTADNQAGLAEQCTGIRKRPATDDSSPQNKRANRTEENVSDGS
notes: also called p27^Kip1; Kip1
binding result: no binding
